In US20260103686A1, “MICROBIAL STRAIN, PROTEIN, AND METHOD FOR PRODUCING GALLIC ACID USING MICROBIAL STRAIN OR PROTEIN” (UNIVERSITY OF TSUKUBA, priority 2022, published 2026):

B1: PoPobA: Polaromonas sp.-derived PobA, protocatechuic acid 5-hydroxylase (SEQ ID NO: 22) (protein, listed as Polaromonas sp.)
chain: MRTQVGIVGAGPAGLMLSHMLHLEGIESVIIERASREHVQSRLRAGVLEHGTVDMLRELGLGERIGKIGLEQHAIDFRFGGESHRLDFHQATNGRSAWVYPQHELVTDLMNARMQAGAEILFETPVTRIDGLHTSKPTVHFEQGGEPRELVCDFVVGCDGFRGVCRDAIPDTVLKTYDRVYPFGWLGILAEAPAPTREITWGCHEEGFAMLSIRSPSVTRLYLQCEPDDDPDHWSDDHIWAELHKRLDVPGMPPVNEGKIMQKGVTAMRSFLAEPMQYGKLFLAGDAAHIVPPTGAKGLNSAMADVKVLGRGLAEKYRRGADHLLERYSQICLKRMWLVQRFSAGLCTMVHQFPGDNAFVRRLQRADLDYMTGTAAGRLAFSENFTGLPIE
B2: HyPobA: Hydrogenophaga sp.-derived PobA, protocatechuic acid 5-hydroxylase (SEQ ID NO: 21) (protein, listed as Hydrogenophaga sp.)
chain: MRTQVGIIGAGPAGLMLAHMLHLEGIESVIIERSKREHVQNRLRAGVLEQGTVEMMRELGLGERIGQLGLEQHRIDFRFGGESHPIDFHEATGGRSAWVYPQHEVVKDLMAARTAAGAQMLFETPVTAIEGIDGTRPVVRFEKDGVAGELHCDFVVGCDGFRGISRRAIPAREGQVHDRIYPFGWLGILAEAPPATNEVTWGCHEDGFAMMSIRTPSVTRLYLQCEPDENPDHWSDDRIWSALHKRLDVPGLPPINEGRITQKGVTAMRSFLFEPMQHGRLFLAGDAAHIVPPTGAKGLNSAMADVKVLARALEQHYQRGSQDLLARYSKTCLKRMWLVQRFSAGLCTMVHSFAGDSSFVRRLQRADLDYMTGTTAGRLQFSENFTGLPID
B3: PaPobA: Pseudomonas aeruginosa-derived PobA (SEQ ID NO: 28), known enzyme with high PCA-hydroxylating activity (protein, listed as Pseudomonas aeruginosa)
chain: MKTQVAIIGAGPSGLLLGQLLHKAGIDNVILERQTPDYVLGRIRAGVLEQGMVDLLREAGVDRRMARDGLVHEGVEIAFAGQRRRIDLKRLSGGKTVTVYGQTEVTRDLMEAREACGATTVYQAAEVRLHDLQGERPYVTFERDGERLRLDCDYIAGCDGFHGISRQSIPAERLKVFERVYPFGWLGLLADTPPVSHELIYANHPRGFALCSQRSATRSRYYVQVPLSEKVEDWSDERFWTELKARLPSEVAEKLVTGPSLEKSIAPLRSFVVEPMQHGRLFLAGDAAHIVPPTGAKGLNLAASDVSTLYRLLLKAYREGRGELLERYSAICLRRIWKAERFSWWMTSVLHRFPDTDAFSQRIQQTELEYYLGSEAGLATIAENYVGLPYEEIE
B4: HgPobA: Hylemonella gracilis-derived PobA, protocatechuic acid 5-hydroxylase (SEQ ID NO: 20) (protein, listed as Hylemonella gracilis)
chain: MSYPTRTQVAIIGAGPSGLMLGALLHKAGIDTVVLERQSGDYVLGRIRAGVLEQVTMDLMDEIGVGARMHQEGLVHGGFDMLFQGQRHRIDMNRLTGGQNVMVYGQTEVTRDLMDARQQAGLTTIYEAANVAIHDFGSGKPRVTYEKDGKTHELQCDFIAGCDGFHGVCRDTVKKSASASAIREYEKVYNFGWLGLLSDTPPVHHELIYVNSERGFALCSQRSATRSRYYLQVPLTDKVEQWSDQAFWDELKLRLDPQAREHLVTGPSIEKSIAPLRSFVTEPLRFGRLFLAGDAGHIVPPAGAKGLNLAATDVKYLSAALTEFYQGKSEAGINHYSERCLKRIWRAERFSWWFTSLMHRFPENGEIGQKLQEAELDYIVHSETGARSVAENFVGLPLDFGA
B5: HgPobA-TY: mutant protein of HgPobA with two mutations T302A and Y393F (protein, listed as Hylemonella gracilis)
chain: B4 chain

Columns and labels:
[1] = Reaction kinetic analysis of purified enzymes, substrate PCA (NADPH absorbance at 340 nm); type: biochemical; settings: relative to PaPobA
Procedure: Using the purified enzyme liquids of HgPobA, HgPobA-TY, PoPobA, HyPobA and PaPobA described above, a reaction kinetic analysis was conducted.

[2] = Analysis of gallic acid-producing activities of purified enzymes (HPLC); type: biochemical; settings: 2 mM PCA, 0.5 mM NADPH, 10 μg enzyme, 30° C., 30 minutes, pH 7.9
Procedure: Using the purified enzyme liquids of HyPobA, PoPobA, HgPobA-TY and PaPobA described above, the gallic acid-producing activities were analyzed.
By adding 10 μM FAD, 0.5 mM NADPH, 2 mM PCA and 10 μg of the respective purified enzyme liquids to 20 mM Tris-HCl buffer (pH 7.9), 100 μL of reaction liquids were prepared.

| Molecule | kcat value for PCA compared with that of PaPobA [1] | relative activity of producing gallic acid from PCA (PaPobA regarded as 1) [2] | Km value for PCA compared with that of PaPobA [1] |
| --- | --- | --- | --- |
| B1 | higher kcat values than that of PaPobA | 20 times |  |
| B2 | higher kcat values than that of PaPobA | 20 times |  |
| B3 |  | 1 times |  |
| B4 | higher kcat values than that of PaPobA |  |  |
| B5 |  | eight | one third or less |
